Source: the DeepSol protein solubility set

assay: soluble on expression in E. coli; label from the status in PepcDB or PDB records

Soluble on expression in E. coli, not soluble:
MGSDKIHHHHHHMPLLDIRNLTIELDTPHGRVKALERVSLTLNPGEVHGLVGESGSGRTLLAKAILGIPGHNWTIQADRMMWDGQNLMDMSPSERRVLMGSEMAMIFQDPISSLDPAIAVGTQIIEAMPENKELPWWKRGSDKRKKAQQWLHKVGIKETQKIMSSYAWELSDGECQKVMIAIAVANQPRLLIADEPTNSMEVRTQAQIFRLLSKLNQLQNVSILLISHELETLSQWCDRLTVMYSGQVMESGVTSDVIANPYHPYTKALLDNIPDYSNPEHHKTMMQTLPGSAPALQHLPIGCRLGPRCPQAQKLCVNQPSLCHQKDRYFACHFPYHNEPCHEEPLTKS
MGSDKIHHHHHHMPLVLIRKSDYSYETLKPLIFGMLDRLGGHRMAPGSRVLIKPNLLTPATPRQAILTHPFIVRAAVEYALNQNARPLVADSPAMGSFSKILRDSGIQEALAPLKVDYRPFQDSLKIDIGEPFGSIDIAREVIEADFIINLPKFKTHSQMLLTLGVKNLFGCIVGYRKPEWHMKTGVNRPLFARLLVQLYHRISPAFTILDGILALEGEGPGKRGTPKGGWPAPRQRQRPGPRQDRLPDT
MGSDKIHHHHHHMPMTNLAALSIPDLQQYAQGAVAAPFGLVLDDGSVLQSLEVVRRVPGKRLVCRGLLNGQAIYAKLFIGGQAGKYAARDKRGARWLAQARLATPTLLLESGVASQGCEALLYGAIPARNAEQVWQDLDEEGRHALALRLVEEVARHHRAGLLQTDLYLKNFLVDAQAVYTLDGDGIRQLRVFGRQRQQWDNLARLISKFDVDAVAAWLPSLLRQYVAVIGGGASDIDIMQQLIARHWRRDMRQYASKVQRSCTDVAVEEKPWHYLAINRAQDSPGVRQALATPDGLLDATSAVRLKSGNTCTVAAVEIDQRKMVIKRYNIKNFWHGLGRAWRPSRAVVSWSNAFRLQLKGIATPAAVAVLERRWLGLRREAYLLTEFMIARDAAEFYADLTIDREVKERVAQRIARLFFQLFCLQLEHGDFKATNILIRDQYPLLIDLDSMRQHACKKRFERRHARDLQRFFKNWQGDAATSQLLAAAFRAVYADGRVLDQAGIVFNQSEKDE
MGSDKIHHHHHHMPPVWTLPRLYQHFQGAIDLELWTIPYYLTVLYSIKDPTTVPYRLIQAAVYQEMLHAQLVSNIANAYGYSPTLSAPEYVGTAVPHIDFDLDTPNPTSIFTPYSAELGPLDLTRVNTMCLIEYPEWRTQREPDLADDVTDYGSIGEFYDALRVGMEQLRGHVRGNQKQMDEFGPFYQNSPPLTVTESGDAGFLQALTLVDIIVDQGEGQTQPVETIPTEFQNTADGFQDAWPHFQRFDFIRRMPNWPGVYTGVTDPPAGSPGAEAQARLIADFAGFLDILNGMFSGGGAPPAFGVQMAKLGGDILSCWKLGAVPRYS
MGSDKIHHHHHHMPSLFSLYRKIFFGRKPGWDQQPLPHIKVTAPHVTVSETKVSQYAQVCGFQFDGKVLPPTYLYVMAFRLHAVIFTHDGITFPLLGMIHLKNRIQVYRPVTVDETFSLECALTTSRETDSGLEFEFVSKAFVGEELVWESLSTYLYRIDVAGRRVRPPKAIDMAWETPQSWRLSEDLGRRYAKASGDYNLIHLHPVLSKRFGFDRVLAHGMWSKARCLAELMPSIGDRPFTVDVTFKLPLLMPADVGFGYEQNTDNMVFELRDSKGRRPHLSGDVQF
MGSDKIHHHHHHMPTIVFVGAGSVRYTIKLVGDLAKTPDLYGSRLVLMDIDEERLKATYILVTKYLRELNAEYTVEQTTSLEEALEGADFVINTALYRAPGHEDGYVHYEIMREVGERHGYYRGIDSQELNMVSDYYTLSNYNHLKMSLDIAKAVEKIAPNAWILQTANPVFEITQLVKRLTKAKIVGFCHGYAHVFHLAKVLGVEPEELDWQVAGVNHAIWMNRFRCRGEDLYPKLDEWIEENASRWEPKNPWDVDFSPAAIDMYRFYGMYPIGDTVRSGTWKYHYDLETKKRWYGKFGGIDNEVERPKFYESLREQRKRLMELAKEVEKDPTIELTKVWPEVFTTGSESVEQHIPFINALVNDKKARLVLNVENRGVIKGIPDDVMVEVPVVVDKEGIHPEKIEPDLTDRIKKFYLLPRILRMEWALEAFISGDRRVLEEILVRDPRTRSYEQAVAVIDDILNLPFNEEMKKHYGS
MGSDKIHHHHHHMPTLTEIGNDQLTVQISSLGAEMQSLRTKDGQSLLWHGDAAYWGGRSPILFPIVGKAKDDTLLIDGKPYSMAQHGIARRREFTLLEAGADVCRHELTAGDETKAAYPFDFSLVLEHRLHGAALTVAATVSNRSDTPMPYGLGFHPAFLWPLPGAEGKPHTITLENGAEPPLLRLGGGLLAEEARPSPFHAGRLVLDKSQFEEDAMIFPEGAGTELTYRAEDAASLHFHFENLPNLALWQKPGAPFICIEPWHGMAARHGKSGELTERPYTVILAPGDSARHGFTVTVEA
MGSDKIHHHHHHMPVDSKHPLWLANQPRWERCRTALQGRDAVHAAGEKYLPKLAGQDKAEYDAYKGRAMFYGATARTEEALIGMVFRKEPTVTLPAALQPMIEDADLAGTPVDTFIENVTKEVIDVTRVGVLVDYPVASGEFMTVGQAQAAGMRPYLATYKAEAIINWRTARVRGVNQLVLVVLAECYTDPKDEFTAEEKTQYRVLDLVDGFYRVRIYRTDLNTPAFEYTPMMNGKRLPYIPFVLIGRNGEAIDPQKPVLLDLVDVNMSHYRGTADYEHALHFTALPTAVVIGHELKEGQALKIGSSEAWVFTDPQADAKYLEFSGQGLDSIKVSLERKEGMMATLGARILAPEKRDAEAAETAKIHRAGENSVLGGIALGVGRSLAKAFRWAAEWAGAGSGTVEVKLNTEFFPAGLTAQDLTALVGALQAAAISPQTFYDNMRRGSIIDDGVTFEEEQDRIEAAGPALGTLGGQDVKPANGAV
MGSDKIHHHHHHMPVLNSVANTVPTRFRFDLLTHDDNDRLQSDSLCPVGFTSLGREPVRLKFGGTKIRDFCVWKTESATGFEARPRVVSDLVTIRFPISGGLARKDGREEVNIDRGQGVIIPFRDMEYERTSRSASMISCTIASVSIFQKMQALYGEERSTFASFVPVVDVNIPQIRIFRTALLRLHDNLQQHGDHNPLSFPIVEELLVFHLLSCWPTTAAVRPTADQVNNRVLRNALDYIEANLASPITVSEIAFAAGVSVRSLQIAFRESKGITPVQYIIECRLDRVHDALKRGFAPGYISQIANAWGFQHHADFSRRYRKRFGETPKQTRTR
MGSDKIHHHHHHMQETKTTVRASTLSNGRSLAAYHEDFDRKWASAWGRTLTYAQMHANRVVQSARIVLSHPDIWGKVASGFVNAARGRKRLLRSLEIAVTYRCNARCEQCSCRRDHDPVREKTELLTLPELQRVIDEAVDMGAFQFCINGGEPMLEEEKVFALLDYIKTRHKGYVHLCTNGTLLDDDKVARLAEHHLDSVEMGFDSAFEDVHDANRVRGGYRKVFHNIEAFRKRGVGVVLNTILTNQKVRSDDMLFTMDLAKKHGCMLQVTPCCLTGALRGRMDMMLTEKARFYFYWFLAQSTNNRSDLYSSLTRIKCPAGREKLGLQPYGDVVSCPLIQIRYGNVREKGLAAIQQDILADPYYGLDGSHGCLPAMSETFIRERLSGDR
MGSDKIHHHHHHMQIKNLSLKNKKDLQIWKEFLTEHGISNFSSAEVFKIDETIALFEDQRIVATGSLAGNVLKYIAVESEGSGSEFNSVISQLTNLAAGKGIFHLFVFTKAKYSKSFQFIGFKELAKSDNAALLESGDYLIGDYLAELPRVANQEEKKIAGIVMNANPFTKGHRYLVEKAASENDYVYVFVVSTDASLFNSKERLQLVKEGTADLKNVFVVSGGDYMVSYATFPAYFLTSDQTVIEYQTTLDALIFKNQIAPVLNIQTRFLGEEPFSKTTGIYNRILEKVLPPSVSVKIIPRAKTQSETIITATEVRQLIAKNNLVPLKQFLPFTTIKYVEEHKTELQSRIKKGININGN
MGSDKIHHHHHHMQILTIDVGGTTALFELQLAGHTEQYKIPTGEGFKIEELNNQIAALERDYDLQDYQLAIGVPGLVQNNRLVACKSLPGLNGLSFDTVKTQGELKFICNDMDAGMQATCDAKYACELLVMCGTGIGMSIAFNGQAFTGATGVAGELGHCRVMTESGEFSLEQLASGDSVRSRNITTQDDLYRAGSYLGMGLAWTVNLFNPNRIWLAGNMMNSAPYYKGCLESLKQMALSAPLAEMKINRVDDMETLVCRGLSAMLARDYPRA
MGSDKIHHHHHHMQINNKIIISCSIIASLVSQTTYAQINTGTTSNKLTAFIHAELIIAPGKRLSDATLLVGNNRIKAIIEHGDIPAGAFKIDLSGYTIYPGFIDPFTDYGIEFEYPKLGLTRPVYGIKRIGGNADNGAIHSEKEWFNYVYPNKERAKEWINNGFTSVQSSKLDGIFRGTGVSLSLADKTANEVIYRARSQPFMAFDKGSSEQDYPSSLMGSIALIRPRIQIISATLGQNGEEGVSC
MGSDKIHHHHHHMQIVACYSNKGGVGKTATAVNLAYAFATSGRRTLLCDLDPQGASGFYFRVKPSKKLTEARFFEDVEHFTKSIRGSDYDNLDILPANMSFRDFDVFLSKMKDARSRLKKALKAVKGDYDIVLLDCPPNISILSENIFRAADAVVTPVIPTTLSQRTFEQLLEFFREHDLPMEKIHAFFSMIQGTKTLHGEMIVELTHNYPKRIMAAKIPFASEIERMGVVRAPVLATAPDSPAGKAYQALFDELLERIVP
MGSDKIHHHHHHMQIVQIEQAPKDYISDIKIIPSKSLLLITSWDGSLTVYKFDIQAKNVDLLQSLRYKHPLLCCNFIDNTDLQIYVGTVQGEILKVDLIGSPSFQALTNNEANLGICRICKYGDDKLIAASWDGLIEVIDPRNYGDGVIAVKNLNSNNTKVKNKIFTMDTNSSRLIVGMNNSQVQWFRLPLCEDDNGTIEESGLKYQIRDVALLPKEQEGYACSSIDGRVAVEFFDDQGDDYNSSKRFAFRCHRLNLKDTNLAYPVNSIEFSPRHKFLYTAGSDGIISCWNLQTRKKIKNFAKFNEDSVVKIACSDNILCLATSDDTFKTNAAIDQTIELNASSIYIIFDYEN
MGSDKIHHHHHHMQKHARVIYNPTSGREIIKKNLADVLSILEQAGYVTSAHATTAEPDDAKHAAEEAVRNRFDLVVAAGGDGTINEVINGIAEKEYRPKVGIIPTGTTNDFARALHVPRDVIKATKIIAAGQSVAMDIGKANETYFINIGGGGRLTELTYDVPSRLKTMLGQLAYYLKGIEMLPSLKATKVKVEYDQGVFEGEVMFFLLGLTNSIGGFEKIAPDAKLDDGKFSLIIVKKVNLAEFIRLVTLALRGDHIKEPNVIYVKSEKVIVNSEDKMLINLDGELGGETPMEFRNLRQHIEFFASVDDIPATDLFIKENS
MGSDKIHHHHHHMQKKRFFDMRKYRFFSSIECDAMLTFKQMEALYWIVQLGSFDAAATRLNTTQSAVSKRIQELERAFDLTVFDRAHRSARLTDKGAELFDHAKELLEQRDRVVERMSSKEALVRHVRIGVTELTALTWLPRLIAAIQAAYPRVHVEAEVDLTATLRERLAADTIDLIVVPQIHAAESFAATVVGEVDNAWMCAPGFMPKRKTAISLTDVARFPLILQGTLSGTGHLYTRFLQEHCVAMQRVLTSNSLIAQIGLTLSGLGVSYLPKACVAHLVACEALDIVRTRPALPPVRYVALHRAERAHSLTADIVRLAAQACDFSTSLLDPGAHD
